From US20260356958 (published 2026)
Substitutions are numbered along the chain they refer to. Read-outs that look alike come from different tables or passages of the source. Values belong to the binder of their own block, whether it stands above or below them.

Legend:
Assay in all cases: SPR, 25C
[1] = target: T1, hIL-36R-His (human)
T1 chain: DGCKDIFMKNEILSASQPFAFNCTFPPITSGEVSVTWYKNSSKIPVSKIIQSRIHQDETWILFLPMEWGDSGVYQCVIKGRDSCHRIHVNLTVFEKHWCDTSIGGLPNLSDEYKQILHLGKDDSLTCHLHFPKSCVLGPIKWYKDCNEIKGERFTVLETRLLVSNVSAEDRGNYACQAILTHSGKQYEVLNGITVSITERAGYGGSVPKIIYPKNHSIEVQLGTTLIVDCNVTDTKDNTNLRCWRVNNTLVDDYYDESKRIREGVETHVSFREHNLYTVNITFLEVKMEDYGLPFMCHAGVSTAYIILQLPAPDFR

[2] = target: T1, hIL-36R-His
[3] = target: T1, hIL-36R-His
[4] = target: hIL-1R3-His (human)
Chain of hIL-1R3-His (human) (chain, as listed by the source): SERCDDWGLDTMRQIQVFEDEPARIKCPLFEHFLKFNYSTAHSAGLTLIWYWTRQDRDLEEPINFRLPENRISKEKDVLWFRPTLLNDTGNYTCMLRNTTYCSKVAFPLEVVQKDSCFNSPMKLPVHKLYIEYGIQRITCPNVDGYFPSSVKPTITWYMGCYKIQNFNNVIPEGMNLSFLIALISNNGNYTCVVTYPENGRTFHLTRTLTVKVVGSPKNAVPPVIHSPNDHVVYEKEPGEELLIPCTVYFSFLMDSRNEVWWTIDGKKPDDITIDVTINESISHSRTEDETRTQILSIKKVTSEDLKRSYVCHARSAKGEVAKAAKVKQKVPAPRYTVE

[5] = target: hIL-1R3-His (human); remark: listed apart in the source

Kd [2]: 2.91 nM
B2: R49E11VH-h3+L26B11VK (antibody, V domains shown)
VH: QVQLVQSGAEVKKPGASVKVSCKASGYSFTSSWIHWVRQAPGQGLEWMGEINPGSGRSNYNENFQGRVTMTVDTSISTAYMELSRLRSDDTAVYYCTVVFYGEPYFPFWGQGTLVTVSS
VL: EIVLTQSPGTLSLSPGERATLSCRASQSVIYSYLAWYQQKPGQAPRLLIYSASKRASGIPDRFSGSGSGTDFTLTISRLEPEDFAVYYCQQHAGIPVTFGQGTKVEIK

Kd [3]: 0.669 nM
B3: Crossmab bispecific antibody, IL-36R arm (antibody, V domains shown)
VH: B2 VH
VL: B2 VL

Further lines, the binder ahead of its results:

B1: Common light chain bispecific antibody, IL-36R arm (R72B7VH+L36E9VK) (antibody, V domains shown)
VH: B2 VH with R38K, S55N, G56V, Q65R, G66N, R67K, V99I, F100N, P107A, F108S
VL: B2 VL with Y31G, R55L, H92D, A93T, G94R, I95Y, V97I
Kd [1]: 1.29 nM

B4: Crossmab bispecific antibody, IL-1R3 arm (antibody, V domains shown)
VH: EVQLVESGGGLVQPGGSLRLSCAASGFTFSSYAMSWVRQAPGKGLVWVAEISRGGSHTYYPDTVTGRFTISRDNAKNTLYLQMNSLRAEDTAVYYCARSYGNYPFDYWGQGTTVTVSS
VL: EIVLTQSPATLSLSPGERATLSCSASSSVSYMYWYQQKPGQAPRLLIYDTSNLASGIPARFSGSGSGTDFTLTISSLEPEDFAVYYCQQWSSYPLTFGQGTKLEIK
Kd [4]: 0.761 nM

B5: Common light chain bispecific antibody, IL-1R3 arm (R1B9VH-h1+L36E9VK) (antibody, V domains shown)
VH: B4 VH
VL: B2 VL with Y31G, R55L, H92D, A93T, G94R, I95Y, V97I
Kd [5]: 1.44 nM
